{
  "source": "patent US20250320480A1",
  "about": "“Immunoglobulin Cleaving Enzyme” (priority 2021, published 2025)",
  "molecules": {"B1": {"name": "IdeSORK2.0 (protein)", "chain": "MSKRKLLKKIEKKDTSSVLTQKKQTKTLWADGVQVDDKDFKPSTENFGTNYLAAEYGIGKGYYDINKKFDGTDDDLCSGVVAANQLHWWLDRNKDYIEKYRQQSKDNGVTIGNTDIFELNKLHDEDQSNFFDFIKKSFGNKFLQPERLLNMYINGYGYLTSQDKAKTSQPSPSKLNFFQKVFKNNLLTDKTPINDIDEFSSQTKNALQNHKVLAVSFASIKNRGLGHVVTVWGADFDENGKVVALYVTDSDDRSKNIGNAKLGMKKLRIEVSAQDSSTIKLTGFEDKNSGGSLRHLYSLSTGEQIWKKYFEETHHHHHH"}, "B2": {"name": "IdeS (Immunoglobulin G-degrading enzyme of S. pyogenes) (protein)", "chain": "DSFSANQEIRYSEVTPYHVTSVWTKGVTPPANFTQGEDVFHAPYVANQGWYDITKTFNGKDDLLCGAATAGNMLHWWFDQNKDQIKRYLEEHPEKQKINFNGEQMFDVKEAIDTKNHQLDSKLFEYFKEKAFPYLSTKHLGVFPDHVIDMFINGYRLSLTNHGPTPVKEGSKDPRGGIFDAVFTRGDQSKLLTSRHDFKEKNLKEISDLIKKELTEGKALGLSHTYANVRINHVINLWGADFDSNGNLKAIYVTDSDSNASIGMKKYFVGVNSAGKVAISAKEIKEDNIGAQVLGLFTLSTGQDSWNQTN"}, "B3": {"name": "IdeZ (protein)", "chain": "DDYQRNATEAYAKEVPHQITSVWTKGVTPLTPEQFRYNNEDVIHAPYLAHQGWYDITKAFDGKDNLLCGAATAGNMLHWWFDQNKTEIEAYLSKHPEKQKIIFNNQELFDLKAAIDTKDSQTNSQLFNYFRDKAFPNLSARQLGVMPDLVLDMFINGYYLNVFKTQSTDVNRPYQDKDKRGGIFDAVFTRGDQTTLLTARHDLKNKGLNDISTIIKQELTEGRALALSHTYANVSISHVINLWGADFNAEGNLEAIYVTDSDANASIGMKKYFVGINAHGHVAISAKKIEGENIGAQVLGLFTLSSGKDIWQKLS"}, "B4": {"name": "IdeS: Immunoglobulin G-degrading enzyme of S. pyogenes, IgG-specific cysteine protease (protein)", "chain": "DSFSANQEIRYSEVTPYHVTSVWTKGVTPPANFTQGEDVFHAPYVANQGWYDITKTFNGKDDLLCGAATAGNMLHWWFDQNKDQIKRYLEEHPEKQKINFNGEQMFDVKEAIDTKNHQLDSKLFEYFKEKAFPYLSTKHLGVFPDHVIDMFINGYRLSLTNHGPTPVKEGSKDPRGGIFDAVFTRGDQSKLLTSRHDFKEKNLKEISDLIKKELTEGKALGLSHTYANVRINHVINLWGADFDSNGNLKAIYVTDSDSNASIGMKKYFVGVNSAGKVAISAKEIKEDNIGAQVLGLFTLSTGQDSWNQTN"}, "B5": {"name": "IdeZ: IgG cysteine protease produced by Streptococcus equi ssp. zooepidemicus (protein)", "chain": "DDYQRNATEAYAKEVPHQITSVWTKGVTPLTPEQFRYNNEDVIHAPYLAHQGWYDITKAFDGKDNLLCGAATAGNMLHWWFDQNKTEIEAYLSKHPEKQKIIFNNQELFDLKAAIDTKDSQTNSQLFNYFRDKAFPNLSARQLGVMPDLVLDMFINGYYLNVFKTQSTDVNRPYQDKDKRGGIFDAVFTRGDQTTLLTARHDLKNKGLNDISTIIKQELTEGRALALSHTYANVSISHVINLWGADFNAEGNLEAIYVTDSDANASIGMKKYFVGINAHGHVAISAKKIEGENIGAQVLGLFTLSSGKDIWQKLS"}},
  "key": {"casein": {"system": "casein", "test": "General protease activity, EnzChek protease assay", "type": "biochemical", "conditions": "casein substrate; FabULOUS 5 μg, FabRICATOR 10 μg, IdeSORK2.0 10 μg", "procedure": "FIG. 2. General protease activity. General protease activity was measured with the EnzCHECK protease assay, using casein as a substrate.\nGeneral protease activity was determined using the EnzChek Protease Assay kit, according to manufacturer's instructions. As a positive control the general protease FabULOUS (SpeB, 5 μg) was used, and as a negative control the IgG-specific protease FabRICATOR (IdeS, 10 μg). IdeSORK2.0 was added to a total quantity of 10 μg."}, "IdeSork2.0": {"system": "IdeSork2.0", "test": "Protease inhibitor assay", "type": "biochemical, Streptococcus krösus", "conditions": "IgG1 pre-incubated with inhibitor, IdeSork2.0 1:5, overnight at 37° C., SDS-PAGE", "procedure": "FIG. 4. Protease inhibitor sensitivity of IdeSork2.0.\nIgG1 (trastuzumab) was pre-incubated with a set of protease inhibitors (G-Biosciences) before addition of IdeSork2.0 (of SEQ ID NO: 3) (1:5), and the mixture was allowed to incubate overnight at 37° C. before analysis on SDS-PAGE."}, "[1]": {"molecular_target": "denatured and reduced IgG"}, "IgG in human serum": {"system": "IgG in human serum", "test": "Activity of IgG hydrolases in human serum", "type": "biochemical", "conditions": "serum (100%), E:S 1:40, 0-4 hours at 37° C., non-reduced SDS-PAGE", "procedure": "FIG. 15. Activity of IgG hydrolases in human serum. Serum (100%) was spiked with IgG hydrolases and activity was analyzed over time using non-reduced SDS-PAGE.\nFor serum activity assays, an E: S ratio of 1:40 (assuming 10 mg/mL IgG in serum) was used, incubating 0-4 hours at 37° C. before analysis on a non-reduced SDS-PAGE. All enzymes were supplied by Genovis AB."}, "IgG1": {"system": "IgG1", "test": "Comparison to other IgG proteases: IgG1", "type": "biochemical", "conditions": "SDS-PAGE", "procedure": "(§1) FIG. 10. IdeSork2.0 is having a similar activity compared to IdeS and IdeZ. To investigate if IdeSork2.0 is hydrolyzing IgG in a similar way as IdeS and IdeZ they were all incubated against IgG1 and IgG2 and analyzed on SDS-PAGE. The cleavage patterns look identical, with both IdeSork2.0 and IdeS having less activity towards IgG2.\n(§2) To further look into the activity of IdeSORK2.0, its activity was compared with IdeS and IdeZ against both IgG1 and IgG2."}, "IgG2": {"system": "IgG2", "test": "Comparison to other IgG proteases: IgG2", "type": "biochemical", "conditions": "SDS-PAGE", "procedure": "as §1, §2"}, "human IgG": {"system": "human IgG", "conditions": "in particular when cleaving IgG2; cited from earlier work"}},
  "note": "Entries after “also recorded” stand apart in the source; their conditions may differ. Non-standard residues stand in square brackets, D forms with d. Residues, ends and D or L forms follow the SMILES beside them. *: point of attachment. Sta = CC(C)C[C@H](N)[C@@H](O)CC(=O)O; Isovaleryl = CC(C)CC(=O)*",
  "data": [
    {"molecule": "FabULOUS: general protease (SpeB), positive control [reference compound]", "values": [
      {"measurement": "General protease activity (signal)", "setting": "casein", "value": "high signal"}
    ]},
    {"molecule": "aprotinin", "values": [
      {"measurement": "Inhibition of IdeSork2.0 hydrolysis of IgG1 (trastuzumab)", "setting": "IdeSork2.0", "value": "besides aprotinin, EDTA, and pepstatin"}
    ]},
    {"molecule": "CC(C)C[C@H](NC(=O)[C@@H](O)[C@H](N)Cc1ccccc1)C(=O)O", "note": "[Bestatin]", "values": [
      {"measurement": "Inhibition of IdeSork2.0 hydrolysis of IgG1 (trastuzumab)", "setting": "IdeSork2.0", "value": "only partly inhibitory"}
    ]},
    {"molecule": "CC(C)CC(=O)N[C@H](C(=O)N[C@H](C(=O)N[C@@H](CC(C)C)[C@@H](O)CC(=O)N[C@@H](C)C(=O)N[C@@H](CC(C)C)[C@@H](O)CC(=O)O)C(C)C)C(C)C", "note": "[pepstatin] (Isovaleryl-VV[Sta]A[Sta]-OH)", "values": [
      {"measurement": "Inhibition of IdeSork2.0 hydrolysis of IgG1 (trastuzumab)", "setting": "IdeSork2.0", "value": "besides aprotinin, EDTA, and pepstatin"}
    ]},
    {"molecule": "O=C(O)CN(CCN(CC(=O)O)CC(=O)O)CC(=O)O", "note": "[EDTA]", "values": [
      {"measurement": "Inhibition of IdeSork2.0 hydrolysis of IgG1 (trastuzumab)", "setting": "IdeSork2.0", "value": "unaffected; also recorded: besides aprotinin, EDTA, and pepstatin"}
    ]},
    {"molecule": "B1", "values": [
      {"measurement": "hydrolysis of IgG, SDS-PAGE", "setting": "horse IgG", "value": "only showed activity against horse and guinea pig IgG"},
      {"measurement": "hydrolysis of IgG, SDS-PAGE", "setting": "dog IgG", "value": "only showed activity against horse and guinea pig IgG (no activity on dog IgG)"},
      {"measurement": "hydrolysis of IgG, SDS-PAGE", "setting": "rat IgG", "value": "only showed activity against horse and guinea pig IgG (no activity on rat IgG)"},
      {"measurement": "hydrolysis, SDS-PAGE", "setting": "human IgA", "value": "IdeSORK2.0 is not active towards IgA"},
      {"measurement": "hydrolysis of IgG, SDS-PAGE", "setting": "monoclonal IgG4", "value": "can also hydrolyze monoclonal IgG4"},
      {"measurement": "hydrolysis of IgG", "setting": "IVIG", "value": "Incubation with polyclonal IgG (e.g. IVIG) resulted in near complete hydrolysis"},
      {"measurement": "percentage hydrolysis of IgG", "setting": "IgG", "value": "A ratio of 1:40 hydrolyzes >95% of IgG in 30-60 minutes"},
      {"measurement": "hydrolysis of IgG, SDS-PAGE", "setting": "cow IgG", "value": "only showed activity against horse and guinea pig IgG (no activity on cow IgG)"},
      {"measurement": "hydrolysis of IgG, SDS-PAGE", "setting": "mouse IgG2a", "value": "the protease is active against mIgG2a"},
      {"measurement": "hydrolysis of IgG, SDS-PAGE", "setting": "[1]", "value": "IdeSORK2.0 is not active against denatured and reduced IgG"},
      {"measurement": "hydrolysis of IgG, SDS-PAGE", "setting": "mouse IgG2b", "value": "but not mIgG1 or mIgG2b"},
      {"measurement": "hydrolysis of IgG, SDS-PAGE", "setting": "porcine IgG", "value": "only showed activity against horse and guinea pig IgG (no activity on porcine IgG)"},
      {"measurement": "hydrolysis of IgG, SDS-PAGE", "setting": "guinea pig IgG", "value": "only showed activity against horse and guinea pig IgG"},
      {"measurement": "hydrolysis of IgG, SDS-PAGE", "setting": "mouse IgG1", "value": "but not mIgG1 or mIgG2b"},
      {"measurement": "hydrolysis of IgG, SDS-PAGE", "setting": "sheep IgG", "value": "only showed activity against horse and guinea pig IgG (no activity on sheep IgG)"}
    ]},
    {"molecule": "B2", "values": [
      {"measurement": "hydrolysis of IgG, SDS-PAGE", "setting": "human IgG1", "value": "All enzymes were able to hydrolyze the antibodies in seemingly an identical fashion, though slightly different efficiently"},
      {"measurement": "hydrolysis of IgG, SDS-PAGE", "setting": "human IgG2", "value": "All enzymes were able to hydrolyze the antibodies in seemingly an identical fashion, though slightly different efficiently"}
    ]},
    {"molecule": "B3", "values": [
      {"measurement": "hydrolysis of IgG, SDS-PAGE", "setting": "human IgG1", "value": "All enzymes were able to hydrolyze the antibodies in seemingly an identical fashion, though slightly different efficiently"},
      {"measurement": "hydrolysis of IgG, SDS-PAGE", "setting": "human IgG2", "value": "All enzymes were able to hydrolyze the antibodies in seemingly an identical fashion, though slightly different efficiently"}
    ]},
    {"molecule": "B4", "values": [
      {"measurement": "Immunoglobulin cleavage activity in the presence of human serum", "setting": "IgG in human serum", "value": "immunoglobulin cleavage activity"},
      {"measurement": "General protease activity (signal)", "setting": "casein", "value": "almost no signal"},
      {"measurement": "Hydrolysis of IgG1", "setting": "IgG1", "value": "able to hydrolyze"},
      {"measurement": "Hydrolysis of IgG2", "setting": "IgG2", "value": "able to hydrolyze; also recorded: less activity"}
    ]},
    {"molecule": "B5", "values": [
      {"measurement": "Immunoglobulin cleavage activity in the presence of human serum", "setting": "IgG in human serum", "value": "immunoglobulin cleavage activity"},
      {"measurement": "IgG cysteine protease activity against human IgG", "setting": "human IgG", "value": "considerably lower than that of IdeS"},
      {"measurement": "Hydrolysis of IgG1", "setting": "IgG1", "value": "able to hydrolyze"},
      {"measurement": "Hydrolysis of IgG2", "setting": "IgG2", "value": "able to hydrolyze"}
    ]}
  ]
}
